Test results from US20250304650A1.

Target: feline FcRn (FCN-F82W3, Acrobiosystems) (feline)
Experiment: SPR Carterra, IgG coupled, pH 6.0

Row | Kd [nM] | koff [s⁻¹] | kon [M⁻¹ s⁻¹] | Binder
1 | 8.6 | 0.00987 | 1.15e+06 | anti-NGF feline IgG1a, Fc variant S428L, T286E (antibody, part only; not given: anti-NGF variable domains, not shown: another chain or arm of the molecule; small tags and cut ends) Fc: PPEMLGGPSIFIFPPKPKDTLSISRTPEVTCLVVDLGPDDSDVQITWFVDNTQVYEAKTSPREEQFNSTYRVVSVLPILHQDWLKGKEFKCKVNSKSLPSPIERTISKAKGQPHEPQVYVLPPAQEELSRNKVSVTCLIKSFHPPDIAVEWEITGQPEPENNYRTTPPQLDSDGTYFVYSKLSVDRSHWQRGNTYTCSVLHEALHSHHTQKSLTQSPGK
2 | 3.4 | 0.00534 | 1.57e+06 | anti-NGF feline IgG1a, Fc variant S434Y, E293D (antibody, part only; not given: anti-NGF variable domains, light chain, not shown: another chain or arm of the molecule; small tags and cut ends) Fc: PPEMLGGPSIFIFPPKPKDTLSISRTPEVTCLVVDLGPDDSDVQITWFVDNTQVYTAKTSPRDEQFNSTYRVVSVLPILHQDWLKGKEFKCKVNSKSLPSPIERTISKAKGQPHEPQVYVLPPAQEELSRNKVSVTCLIKSFHPPDIAVEWEITGQPEPENNYRTTPPQLDSDGTYFVYSKLSVDRSHWQRGNTYTCSVSHEALHYHHTQKSLTQSPGK
3 | 2.9 | 0.00371 | 1.28e+06 | anti-NGF feline IgG1a, Fc variant S434Y, T286D (antibody, part only; not given: anti-NGF variable domains, not shown: another chain or arm of the molecule; small tags and cut ends) Fc: PPEMLGGPSIFIFPPKPKDTLSISRTPEVTCLVVDLGPDDSDVQITWFVDNTQVYDAKTSPREEQFNSTYRVVSVLPILHQDWLKGKEFKCKVNSKSLPSPIERTISKAKGQPHEPQVYVLPPAQEELSRNKVSVTCLIKSFHPPDIAVEWEITGQPEPENNYRTTPPQLDSDGTYFVYSKLSVDRSHWQRGNTYTCSVSHEALHYHHTQKSLTQSPGK
4 | 16.7 | 0.0241 | 1.45e+06 | anti-NGF feline IgG1a, Fc variant S428L (antibody, part only; not given: Anti-NGF variable domains, not shown: another chain or arm of the molecule; small tags and cut ends) Fc: PPEMLGGPSIFIFPPKPKDTLSISRTPEVTCLVVDLGPDDSDVQITWFVDNTQVYTAKTSPREEQFNSTYRVVSVLPILHQDWLKGKEFKCKVNSKSLPSPIERTISKAKGQPHEPQVYVLPPAQEELSRNKVSVTCLIKSFHPPDIAVEWEITGQPEPENNYRTTPPQLDSDGTYFVYSKLSVDRSHWQRGNTYTCSVLHEALHSHHTQKSLTQSPGK
5 | 4.2 | 0.00718 | 1.73e+06 | anti-NGF feline IgG1a, Fc variant S434F (antibody, part only; not given: anti-NGF variable domains, light chain, not shown: another chain or arm of the molecule; small tags and cut ends) Fc: PPEMLGGPSIFIFPPKPKDTLSISRTPEVTCLVVDLGPDDSDVQITWFVDNTQVYTAKTSPREEQFNSTYRVVSVLPILHQDWLKGKEFKCKVNSKSLPSPIERTISKAKGQPHEPQVYVLPPAQEELSRNKVSVTCLIKSFHPPDIAVEWEITGQPEPENNYRTTPPQLDSDGTYFVYSKLSVDRSHWQRGNTYTCSVSHEALHFHHTQKSLTQSPGK
6 | 11.2 | 0.0113 | 1.01e+06 | anti-NGF feline IgG1a, Fc variant S428L, D312T (antibody, part only; not given: anti-NGF variable domains, not shown: another chain or arm of the molecule; small tags and cut ends) Fc: PPEMLGGPSIFIFPPKPKDTLSISRTPEVTCLVVDLGPDDSDVQITWFVDNTQVYTAKTSPREEQFNSTYRVVSVLPILHQTWLKGKEFKCKVNSKSLPSPIERTISKAKGQPHEPQVYVLPPAQEELSRNKVSVTCLIKSFHPPDIAVEWEITGQPEPENNYRTTPPQLDSDGTYFVYSKLSVDRSHWQRGNTYTCSVLHEALHSHHTQKSLTQSPGK
7 | 11.7 | 0.0107 | 916000 | anti-NGF feline IgG1a, Fc variant S428L, Q311V (antibody, part only; not given: Anti-NGF variable domains, not shown: another chain or arm of the molecule; small tags and cut ends) Fc: PPEMLGGPSIFIFPPKPKDTLSISRTPEVTCLVVDLGPDDSDVQITWFVDNTQVYTAKTSPREEQFNSTYRVVSVLPILHVDWLKGKEFKCKVNSKSLPSPIERTISKAKGQPHEPQVYVLPPAQEELSRNKVSVTCLIKSFHPPDIAVEWEITGQPEPENNYRTTPPQLDSDGTYFVYSKLSVDRSHWQRGNTYTCSVLHEALHSHHTQKSLTQSPGK
8 | 3.6 | 0.00559 | 1.53e+06 | anti-NGF feline IgG1a, Fc variant S434Y, T289K (antibody, part only; not given: Anti-NGF variable domains, not shown: another chain or arm of the molecule; small tags and cut ends) Fc: PPEMLGGPSIFIFPPKPKDTLSISRTPEVTCLVVDLGPDDSDVQITWFVDNTQVYTAKKSPREEQFNSTYRVVSVLPILHQDWLKGKEFKCKVNSKSLPSPIERTISKAKGQPHEPQVYVLPPAQEELSRNKVSVTCLIKSFHPPDIAVEWEITGQPEPENNYRTTPPQLDSDGTYFVYSKLSVDRSHWQRGNTYTCSVSHEALHYHHTQKSLTQSPGK

Further lines, the binder ahead of its results:

Row | Binder | Kd [nM] | koff [s⁻¹] | kon [M⁻¹ s⁻¹]
9 | anti-NGF feline IgG1a, Fc variant S434Y, S254K (antibody, part only; not given: anti-NGF variable domains, light chain, not shown: another chain or arm of the molecule; small tags and cut ends) Fc: PPEMLGGPSIFIFPPKPKDTLSIKRTPEVTCLVVDLGPDDSDVQITWFVDNTQVYTAKTSPREEQFNSTYRVVSVLPILHQDWLKGKEFKCKVNSKSLPSPIERTISKAKGQPHEPQVYVLPPAQEELSRNKVSVTCLIKSFHPPDIAVEWEITGQPEPENNYRTTPPQLDSDGTYFVYSKLSVDRSHWQRGNTYTCSVSHEALHYHHTQKSLTQSPGK | 3.1 | 0.00504 | 1.61e+06
10 | anti-NGF feline IgG1a, Fc variant S434Y, T286E (antibody, part only; not given: anti-NGF variable domains, light chain, not shown: another chain or arm of the molecule; small tags and cut ends) Fc: PPEMLGGPSIFIFPPKPKDTLSISRTPEVTCLVVDLGPDDSDVQITWFVDNTQVYEAKTSPREEQFNSTYRVVSVLPILHQDWLKGKEFKCKVNSKSLPSPIERTISKAKGQPHEPQVYVLPPAQEELSRNKVSVTCLIKSFHPPDIAVEWEITGQPEPENNYRTTPPQLDSDGTYFVYSKLSVDRSHWQRGNTYTCSVSHEALHYHHTQKSLTQSPGK | 3.6 | 0.00345 | 965000
11 | anti-NGF feline IgG1a, Fc variant S434Y, K326D (antibody, part only; not given: anti-NGF variable domains, light chain, not shown: another chain or arm of the molecule; small tags and cut ends) Fc: PPEMLGGPSIFIFPPKPKDTLSISRTPEVTCLVVDLGPDDSDVQITWFVDNTQVYTAKTSPREEQFNSTYRVVSVLPILHQDWLKGKEFKCKVNSDSLPSPIERTISKAKGQPHEPQVYVLPPAQEELSRNKVSVTCLIKSFHPPDIAVEWEITGQPEPENNYRTTPPQLDSDGTYFVYSKLSVDRSHWQRGNTYTCSVSHEALHYHHTQKSLTQSPGK | 4 | 0.00549 | 1.38e+06
12 | anti-NGF feline IgG1a, Fc variant S434Y, L262E (antibody, part only; not given: Anti-NGF variable domains, not shown: another chain or arm of the molecule; small tags and cut ends) Fc: PPEMLGGPSIFIFPPKPKDTLSISRTPEVTCEVVDLGPDDSDVQITWFVDNTQVYTAKTSPREEQFNSTYRVVSVLPILHQDWLKGKEFKCKVNSKSLPSPIERTISKAKGQPHEPQVYVLPPAQEELSRNKVSVTCLIKSFHPPDIAVEWEITGQPEPENNYRTTPPQLDSDGTYFVYSKLSVDRSHWQRGNTYTCSVSHEALHYHHTQKSLTQSPGK | 3.3 | 0.00498 | 1.51e+06
13 | anti-NGF feline IgG1a, Fc variant S434F, E380D (antibody, part only; not given: anti-NGF variable domains, light chain, not shown: another chain or arm of the molecule; small tags and cut ends) Fc: PPEMLGGPSIFIFPPKPKDTLSISRTPEVTCLVVDLGPDDSDVQITWFVDNTQVYTAKTSPREEQFNSTYRVVSVLPILHQDWLKGKEFKCKVNSKSLPSPIERTISKAKGQPHEPQVYVLPPAQEELSRNKVSVTCLIKSFHPPDIAVDWEITGQPEPENNYRTTPPQLDSDGTYFVYSKLSVDRSHWQRGNTYTCSVSHEALHFHHTQKSLTQSPGK | 3.3 | 0.00583 | 1.77e+06
14 | anti-NGF feline IgG1a, Fc variant S428L, S252R (antibody, part only; not given: anti-NGF variable domains, not shown: another chain or arm of the molecule; small tags and cut ends) Fc: PPEMLGGPSIFIFPPKPKDTLRISRTPEVTCLVVDLGPDDSDVQITWFVDNTQVYTAKTSPREEQFNSTYRVVSVLPILHQDWLKGKEFKCKVNSKSLPSPIERTISKAKGQPHEPQVYVLPPAQEELSRNKVSVTCLIKSFHPPDIAVEWEITGQPEPENNYRTTPPQLDSDGTYFVYSKLSVDRSHWQRGNTYTCSVLHEALHSHHTQKSLTQSPGK | 9 | 0.00873 | 974000
15 | anti-NGF feline IgG1a, Fc variant S434Y, Q347L (antibody, part only; not given: Anti-NGF variable domains, not shown: another chain or arm of the molecule; small tags and cut ends) Fc: PPEMLGGPSIFIFPPKPKDTLSISRTPEVTCLVVDLGPDDSDVQITWFVDNTQVYTAKTSPREEQFNSTYRVVSVLPILHQDWLKGKEFKCKVNSKSLPSPIERTISKAKGQPHEPLVYVLPPAQEELSRNKVSVTCLIKSFHPPDIAVEWEITGQPEPENNYRTTPPQLDSDGTYFVYSKLSVDRSHWQRGNTYTCSVSHEALHYHHTQKSLTQSPGK | 3.4 | 0.00667 | 1.98e+06
16 | anti-NGF feline IgG1a, Fc variant S434Y, E293K (antibody, part only; not given: anti-NGF variable domains, light chain, not shown: another chain or arm of the molecule; small tags and cut ends) Fc: PPEMLGGPSIFIFPPKPKDTLSISRTPEVTCLVVDLGPDDSDVQITWFVDNTQVYTAKTSPRKEQFNSTYRVVSVLPILHQDWLKGKEFKCKVNSKSLPSPIERTISKAKGQPHEPQVYVLPPAQEELSRNKVSVTCLIKSFHPPDIAVEWEITGQPEPENNYRTTPPQLDSDGTYFVYSKLSVDRSHWQRGNTYTCSVSHEALHYHHTQKSLTQSPGK | 4.1 | 0.00501 | 1.22e+06
17 | anti-NGF feline IgG1a, Fc variant S434Y, L309V (antibody, part only; not given: anti-NGF variable domains, light chain, not shown: another chain or arm of the molecule; small tags and cut ends) Fc: PPEMLGGPSIFIFPPKPKDTLSISRTPEVTCLVVDLGPDDSDVQITWFVDNTQVYTAKTSPREEQFNSTYRVVSVLPIVHQDWLKGKEFKCKVNSKSLPSPIERTISKAKGQPHEPQVYVLPPAQEELSRNKVSVTCLIKSFHPPDIAVEWEITGQPEPENNYRTTPPQLDSDGTYFVYSKLSVDRSHWQRGNTYTCSVSHEALHYHHTQKSLTQSPGK | 1.8 | 0.004 | 2.21e+06
18 | anti-NGF feline IgG1a, Fc variant S428L, I377V (antibody, part only; not given: anti-NGF variable domains, not shown: another chain or arm of the molecule; small tags and cut ends) Fc: PPEMLGGPSIFIFPPKPKDTLSISRTPEVTCLVVDLGPDDSDVQITWFVDNTQVYTAKTSPREEQFNSTYRVVSVLPILHQDWLKGKEFKCKVNSKSLPSPIERTISKAKGQPHEPQVYVLPPAQEELSRNKVSVTCLIKSFHPPDVAVEWEITGQPEPENNYRTTPPQLDSDGTYFVYSKLSVDRSHWQRGNTYTCSVLHEALHSHHTQKSLTQSPGK | 10.8 | 0.0183 | 1.69e+06
19 | anti-NGF feline IgG1a, Fc variant S434Y, L309E (antibody, part only; not given: Anti-NGF variable domains, not shown: another chain or arm of the molecule; small tags and cut ends) Fc: PPEMLGGPSIFIFPPKPKDTLSISRTPEVTCLVVDLGPDDSDVQITWFVDNTQVYTAKTSPREEQFNSTYRVVSVLPIEHQDWLKGKEFKCKVNSKSLPSPIERTISKAKGQPHEPQVYVLPPAQEELSRNKVSVTCLIKSFHPPDIAVEWEITGQPEPENNYRTTPPQLDSDGTYFVYSKLSVDRSHWQRGNTYTCSVSHEALHYHHTQKSLTQSPGK | 4.1 | 0.00458 | 1.13e+06
20 | anti-NGF feline IgG1a, Fc variant S428L, Q311K (antibody, part only; not given: anti-NGF variable domains, light chain, not shown: another chain or arm of the molecule; small tags and cut ends) Fc: PPEMLGGPSIFIFPPKPKDTLSISRTPEVTCLVVDLGPDDSDVQITWFVDNTQVYTAKTSPREEQFNSTYRVVSVLPILHKDWLKGKEFKCKVNSKSLPSPIERTISKAKGQPHEPQVYVLPPAQEELSRNKVSVTCLIKSFHPPDIAVEWEITGQPEPENNYRTTPPQLDSDGTYFVYSKLSVDRSHWQRGNTYTCSVLHEALHSHHTQKSLTQSPGK | 10.5 | 0.0101 | 958000
